In the DeepSol protein solubility set:

test: soluble on expression in E. coli; label from the status in PepcDB or PDB records

Sequence | soluble on expression in E. coli
MIKMIDQYQAFTQSPIGKFVVKNLGLPSPVVLDRFESGQPVIKGAVLMGAAPSSSLTSGIAQVLSNIHADSYAGNNAEIQQAAAQVGLNLRAFNSGDKESKFKAVVFDASGIQNSEQLDELYKFFNPIVRQIESSGRVIVLGTSPESAKTVKQAIAQRALEGFIKSVGKEFKKGITAQVVYVDEGAVNNIESTLRFLLSPRSAYVSGQVIRVSKAEVVQVDWDKPLAGKTALVTGASRGIGEAIAHVLARDGAHVICLDVPQQQVDLDRVASEIGGSALGLDITAADAGEKIKAAAAKQGGLDIIVHNAGITRDKTLANMKSELWDLVININLSAAERINDYLLANDGLNTNGRIVCVSSISGIAGNLGQTNYAVSKAGVIGLVKFTAPILKNGITINAVAPGFIETQMTAAIPFAIREAGRRMNSMNQGGLPVDVAETISWFAATGSTGINGNVVRVCGQSLLGALEHHHHHH | soluble
NAELAKSGIEVKNDVCEHFAYSRQELFHLIRIEEIKTFDELLEKYGKGYGCEVCKPLAGSILASCWGEHILKPQLVKLHDTNDNFLGNIQKDGTYSVIPRMAGGEVTPQALGALANVAAEYNLYTKVTGAQRIGLFGAQKDDLPEIWRKLIDAGFETGQAYAKALRMAKTCVGSTWCRYGVQDSVGLGSYIENRYKGIRTPHKMKFGVSGCTRECAEAQGKDLGIIATDAGWNMYVCGNGGMKPRHADLLASDLDKETLIKYIDRFMMFYIRTAAPLQRTSVWMENMEGGVDYLRAVIVEDKLGINAQLEADVAKLVDEYECEWTATINDASQLTRFAHFINSDKRDDNVVFVQEREQHRPATFTEKHPEAKGDILHVAITEA | not soluble
MAMAALKDLVEFQLKNAQELVTVLEAEKVAITSRISVDIESIAKQKLTLVNQLQQTDQRIAKHPHVASLTEDTYLNELVSQIRSIIMDCQQANLINGDALARAQLSFNKLNNLMQQSHGKIGMTYSATGKTHTISTLGTNIKA | not soluble
MGSDKIHHHHHHMALRSMDELRQQAQGALSLNIAFIGVVNGLFSTLHALGNADSAALAAATGMDTGYVLRWCDAAYAFGWLELTDNEQWRLSEDGDRMRPEAENSRVGVAVGAVLSAHMAERAAGLMRTGERPGEKVLAERETILPWFGLMLENNFRKTFEEKICPTVPIFAEVDARGGLAVDLGCGNGWYLRALAARCGHLHGLGLDGFAENIRQATEKAQSEGIADRLHFDEGDIHQFSLPEPADLIAMNRSLHHVWENRGEIFQRLHASLKPEGAIVIWEPAWPDDHRVLREPPLRGMAFQNLTEHVQGNHFLHPEEIATALSEAGLHPEIFPFGSDVVVVGRV | not soluble
NKDNLDLAGLTSLLSEKIKEFLQEKKMQSFYQQELETVESLQSLASRPVTHSTGSDQVELKDSGTSGVAQRVFKNALQLLQEKGLVFQRDSGSDKLYYVTTKDKDLQ | soluble
SASVRIREAKEGDCGDILRLIRELAEFEKLSDQVKISEEALRADGFGDNPFYHCLVAEILPAPGKLLGPCVVGYGIYYFIYSTWKGRTIYLEDIYVMPEYRGQGIGSKIIKKVAEVALDKGCSQFRLAVLDWNQRAMDLYKALGAQDLTEAEGWHFFCFQGEATRKLAGK | soluble
MGSDKIHHHHHHMNAPANFDSLEVGFDVPALPGMDEADIQTPCLVLDLDALERNIKKMGDYARAHGMRHRVHGKMHKSVDVAKLQERLGGAIGVCCQKVSEAEVFARGGIKDVLVSNQVRDPAKIDRLARLPKLGARTIVCVDDPANVADLSAAAQKHDTEIECFVEIDCGAGRCGVTTTEDVVEIAQAIDAAPGLKFTGIQAYQGAMQHLDSYEARKEKLDVAIAQVRDAVEGLKAADLAPELVSGGGTGSYYFESNSGVYNELQCGSYAFMDADYGRILDQDGKRIDQGEWENAFFILTQVMSHAKADKAICDAGLKAQSVDSGLPFIFGRTDVEYVKCSDEHGVIADPDGVLKVGEKLKLVPGHCDPTANVHDWYVGVRNGKVETLWPVSARGKAY | not soluble
MRNVELIFIPTPTVGHLVPFLEFARRLIEQDDRIRITILLMKLQGQSHLDTYVKSIASSQPFVRFIDVPELEEKPTLGSTQSVEAYVYDVIERNIPLVRNIVMDILTSLALDGVKVKGLVVDFFCLPMIDVAKDISLPFYVFLTTNSGFLAMMQYLADRHSRDTSVFVRNSEEMLSIPGFVNPVPANVLPSALFVEDGYDAYVKLAILFTKANGILVNSSFDIEPYSVNHFLQEQNYPSVYAVGPIFDLKAQPHPEQDLTRRDELMKWLDDQPEASVVFLCFGSMARLRGSLVKEIAHGLELCQYRFLWSLRKEEVTKDDLPEGFLDRVDGRGMICGWSPQVEILAHKAVGGFVSHCGWNSIVESLWFGVPIVTWPMYAEQQLNAFLMVKELKLAVELKLDYRVHSDEIVNANEIETAIRYVMDTDNNVVRKRVMDISQMIQRATKNGGSSFAAIEKFIYDVIGIKP | soluble
GSHMECADVPLLTPSSKEMMSQALKATFSGFTKEQQRLGIPKDPRQWTETHVRDWVMWAVNEFSLKGVDFQKFCMSGAALCALGKECFLELAPDFVGDILWEHLEILQKEDVK | soluble
MGSDKIHHHHHHMAHIFVYGTLKRGQPNHKVMLDHSHGLAAFRGRGCTVESFPLVIAGEHNIPWLLYLPGKGHCVTGEIYEVDEQMLRFLDDFEDCPSMYQRTALQVQVLEWEGDGDPGDSVQCFVYTTATYAPEWLFLPYHESYDSEGPHGLRYNPRENR | soluble
MGSDKIHHHHHHMRLPPIDLSRENTFGEISYESGGQYGPIRGDYLAFIIVHLGTLKIEADETVLQLEAGHCALSLTRDSYLTTIAPETLTHISWCDGRPLNAAWLYKERHKYAPFINASTQVQTLMQLGVDLGIGDRDGRGGLREALTNTLLNAYIYEAEVVAEERPIPQTILQARRFLDENFAADVSIERVAQQVRVSPQYLVSAFKKHLGMTPARYLWRCRLDYGAHLLQRSGLSVSEIAYQVGYKNPYHFSRQIKLAFDCSPTELREKMLNG | not soluble
VLASILLSQAAYESNYGSSLLSVKYHNIYSLPARPGQEHIYLKDNVYSKGKWQYQKVDFAVFRDWSSSMSSYLEELRQGRWGESTYKEVAGTTSYKVAAEKLQAAGFNSDPDYTKHLISIIETYNL | not soluble
MPNDMTHIDKIQALAFSIGKKMQTELLEQMQATGLTPPQFYILKILDHYGASRATTLAKKMYVKPSAITVMIDRLIDQELVERYHDKDDRRVVIIELTKKGKARVEEAMTARNEHIAKYFSHLELQEREDLLRLFEKLETIICGTQEKKENN | not soluble
MNFRTDSIDDLDKFKKEFKPVMHLKGDAFNQQLQSLINKYPQIQKNMKSEFIAYYDKEKNRETVKNYAWNLQKSINDIMQSYPSTKFVQFYKDDVSPSMVDGNGRLKSDTNVISIEGGKYDENKLEHHHHHH | soluble
MSLIDLKPKVERVDAIQSFVSQETPIVTIHDSDGASGTGYSYTIGTGGPSVMALLEQTLVPALIGKDADRIDGIWRDLLFLTHATAVGPITSLALAAIDIALWDLRCKKMGLPLWKAAGGSRDRIPLYSTEGGWLHLETAALVEDALAMKEQGFRGSKIKIGRAHLSEDRARLGAIRAAVGDSYEIMTDANQGFTLSEAIRRAKVLEEFGIGWFEEPLPADDVLSHQELSRRTHVPIAVGESMYSLSQFKDYLQVGAAQIVQVDVARIGGITPWLKVAHLAEAHSVMVCPHFLMELHLPLVCAVPNAKWLEYIPQLDGVTRQNMQISNGDAVPSDEPGLGIDWDWDAITAQEIGARSIGGAEGHHHHHH | not soluble
MGSDKIHHHHHHMIEKVEEKSKIIKTSKEYKRTIIEEKDKEWTKKLNDILSRSSFSNDELDKIKALIPKEILTNENVGEVVTEDGYAKPEYDEVFKSLFTLNNEYDLLVNFINDILKDAPYANRNIKPFTQIKRIIRVETDPTINYIGEKRPRLDILAEDEENNHINIEMQRAFENDYLERAEYYLSRVHGRKLEEGKEYKEIGKTIGIHILNHVKYNHIEDYVNCLRLTMDGHPDIYSSKTALYFIELPKIHKSDYIVNRIMLWGKLISNPSNLDVRVIAKNDSIIKKALDRLKELGSNEEYLLNLKRGAYIMNKSRNFKEEIERETAIRVAKEKDYKIIIMLKKNGFKLDDILNKFNDFDLSEDEIKEVYENN | not soluble
MSLMFHVVDDSEMLREMLVDMIEIYDCNVMTFASASEYLEYVRSDAFKAPSAVLTDVHMPQMSGYEMMEQVLAIDPSIRFAILSGEPDIPARYQDKVCLFLGKPYTGDQIQNMIYIFKQCELNSASEGHHHHHH | soluble
HHHHHHYMEQEEDWDRDLLLDPAWEKQQRKTFTAWCNSHLRKAGTQIENIEEDFRNGLKLMLLLEVISGERLPRPDKGKMRFHKIANVNKALDFIASKGVKLVSIGAEEIVDGNLKMTLGMIWTIILRFAIQDISVEETSAKEGLLLWCQRKTAPYRNVNVQNFHTSWKDGLALCALIHRHRPDLIDYAKLRKDDPIGNLNTAFEVAEKYLDIPKMLDAEDIVNTPKPDEKAIMTYVSCFYHAFAGAEQAETAA | soluble
MGSDKIHHHHHHMNLEEENTIFKPLYSLKHSPINAYFSKNSDDFVVRERPLYEFSGKGEHLILHINKKDLTTNEALKILSEASGVKIRDFGYAGLKDKQGSTFQYLSMPKKFESFLSNFSHPKLKILEIFTHENKLRIGHLKGNSFFIRLKKVLPSDALKLEQALMNLDKQGFANYFGYQRFGKFGDNYKEGLEILRGKKMKNVKMKEFLISAFQSELFNRYLSKRVELSHFANDFSEKELIQIYKISKEEAKELKKQEQFFKLLKGEVLGHYPFGKCFLCEDLSAELGRFKARDISAMGLLIGAKAYETGEGLALNLENEIFKDTLEFKAKMQGSRRFMWGYLEELKWRYDEEKAHFCIEFFLQKGSYATVVLEEILHKNLFE | not soluble
PQRSQRESRHLFIREAKKLCQKEFKRWFILAADVNPLMKYFKDRELPIPTLYLMGDRDYMFIQPVKEMVAAHKLSILREIPNCGHVCNVERPEDFNQHSIEFIKQQSIVA | not soluble
GPGSMLGWSGTRFAAALHLRSVCSPRSAAAQGSHARAPRALSSSSSFVALFGSARGFSGTARRFSGTFHYRKVRLTPEDALDPLTKPTNIDKAALHVVSVPIGNLKDFSLRALDVLRGVDYIITTDRPATKTLLDLVNIPNQGRLIHYSRGNRSTSREKLVELLKGGRSMALVTTSGTPCIGDVGGELVQELQKSGIRVTAVPGASALMSALAISGLTTSAYESAKNDKRGADAAADGEAGLSPQTFEDGSFFFGNVLPKSHGARLRILRTIVAPATFPCVFYEVPYRLVMVLQDIASVLPHRFVYVTHELTKLNESLHADTAERLVGFYLRQEAQMLVKKGQLVLVIAGAGPKETAAWLEKEAAKRRRLRRTVSDLMKDAPPAASSHLESAPGTGGTTAAASSSRESSVTTAKEERRQRRKQRAELRRLRQRKKRERLIRAIESEQERLRVILSINRNDASRLM | not soluble
GPGSMLRATILARGTLVKIGRGPNNVTESASNALLESLQDHGYCYIQHPFIQKTILDQLHRDCRIFFEQYVLHLHDAAAQGSLKRNNLHNYNCTQLSPYELESIKSPSGFRGYYRYVGASGIDDAIECFSVGRDDVADPAVLRRDYYKQAGWEESEYLSMISRRNPWDILLNHVNSIPASGSGIVPGMDRNDNFMSDFKDMMMAYYDLCYTVSMDVMRHISCGLGIRPSIPQGGSDPTMDFELEYFTSFHQKRDCDLQAKYYPQLGAGARLKNGVDIQNQRSAHNPDGVKVLRRKGAKTQPLVRTASTEDGDGEKDVTVRLDTHKDLSTITLLSQDSLGGLEVWDEEKASYMAVPVLEDALLVNAGLFLEKWTGGLIEATPHRVRNAKGGSSRCSIVFFALPDHDARIEPLLQQEDNPAVDAQDSFLAGDMMPAP | not soluble
